From patent US20240352102A1
Several values for one entry are separate records, joined by “and”; a condition that tells them apart may be missing. Equal values may be shown once.

Experiments:
Assay in all cases: peptide microarray
[1] = molecular target: T1, Peptide_051
T1 sequence (peptide): RTPPKSPSSAKSRLQ

[2] = molecular target: T2, Peptide_059
T2 sequence (peptide): STENLKHQPGGGKVQ

[3] = molecular target: T3, Peptide_060
T3 sequence (peptide): LKHQPGGGKVQIINK

[4] = molecular target: T4, Peptide_061
T4 sequence (peptide): PGGGKVQIINKKLDL

fluorescence intensity [1]: 151 and 83.3
fluorescence intensity [2]: 204 and 126
fluorescence intensity [3]: 793 and 655
fluorescence intensity [4]: 157 and 114
B1: mAb TRC35 (antibody, V domains shown)
VH: QVQLQQPGTELVKPGASVKLSCKASGYTFTSYWLQWVKQRPGQGLEWIGEIDPSDSYTNYNQKFKGKATLTVDTSSSTAYMQLSSLTSEDSAVYYCATLTGSWGQGTTLAVSS
VL: DVLLTQTPLSLPVSLGDQASISCRASQSIVDSNGNTFLEWYLQKSGQSPKVLIYKVSNRFSGVPDRFSGRGSGTDFTLKISRVEAEDLGVYYCFQGSHVPYTFGGGTKLEIK
